Test results as given in patent publication US20060073152A1 (Genentech, published 2006).
No end group written: not given here.

What was measured:
[1] = biological target: T1, rabbit serum albumin (rabbit, UniProt P49065 25-608); experiment: phage binding
T1 construct: also called Rabbit SA; BuSA

[2] = biological target: T2, mouse serum albumin (mouse, UniProt P07724 25-608); experiment: peptide competition for albumin
T2 construct: also called Mouse SA; MuSA

[3] = biological target: T1, rabbit serum albumin; experiment: peptide competition for albumin
[4] = biological target: T3, rat serum albumin (rat, UniProt P02770 25-608); experiment: peptide competition for albumin
T3 construct: also called Rat SA; RSA

[5] = biological target: T1, rabbit serum albumin; experiment: peptide competition; head prints RSA, read as rabbit
[6] = biological target: T4, human serum albumin (human, UniProt P02768 25-609); experiment: phage binding
T4 construct: also called Human SA; HuSA

[7] = biological target: T4, human serum albumin; experiment: SPR (BIAcore), albumin on the chip
[8] = biological target: T1, rabbit serum albumin; experiment: SPR (BIAcore), albumin on the chip
[9] = biological target: T3, rat serum albumin; experiment: SPR (BIAcore), albumin on the chip
[10] = biological target: T2, mouse serum albumin; experiment: SA08 peptide competition
[11] = biological target: T1, rabbit serum albumin; experiment: SA08 peptide competition
[12] = biological target: T3, rat serum albumin; experiment: phage binding

T1 sequence (P49065 25-608 limits assumed): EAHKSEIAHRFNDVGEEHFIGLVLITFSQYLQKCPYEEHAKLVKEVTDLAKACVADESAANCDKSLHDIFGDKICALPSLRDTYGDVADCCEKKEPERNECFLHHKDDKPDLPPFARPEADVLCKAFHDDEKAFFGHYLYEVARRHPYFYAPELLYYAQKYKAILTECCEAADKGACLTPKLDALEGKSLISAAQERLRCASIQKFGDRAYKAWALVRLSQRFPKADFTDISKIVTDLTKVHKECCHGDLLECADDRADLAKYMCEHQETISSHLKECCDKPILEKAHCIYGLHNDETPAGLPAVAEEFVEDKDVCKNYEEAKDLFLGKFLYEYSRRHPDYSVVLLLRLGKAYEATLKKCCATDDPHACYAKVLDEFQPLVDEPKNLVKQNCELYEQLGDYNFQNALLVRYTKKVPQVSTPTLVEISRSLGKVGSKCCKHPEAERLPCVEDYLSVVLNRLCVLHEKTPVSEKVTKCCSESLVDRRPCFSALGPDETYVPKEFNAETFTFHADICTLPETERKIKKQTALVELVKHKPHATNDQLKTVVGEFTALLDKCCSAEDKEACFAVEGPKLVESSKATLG
T2 sequence (P07724 25-608 limits assumed): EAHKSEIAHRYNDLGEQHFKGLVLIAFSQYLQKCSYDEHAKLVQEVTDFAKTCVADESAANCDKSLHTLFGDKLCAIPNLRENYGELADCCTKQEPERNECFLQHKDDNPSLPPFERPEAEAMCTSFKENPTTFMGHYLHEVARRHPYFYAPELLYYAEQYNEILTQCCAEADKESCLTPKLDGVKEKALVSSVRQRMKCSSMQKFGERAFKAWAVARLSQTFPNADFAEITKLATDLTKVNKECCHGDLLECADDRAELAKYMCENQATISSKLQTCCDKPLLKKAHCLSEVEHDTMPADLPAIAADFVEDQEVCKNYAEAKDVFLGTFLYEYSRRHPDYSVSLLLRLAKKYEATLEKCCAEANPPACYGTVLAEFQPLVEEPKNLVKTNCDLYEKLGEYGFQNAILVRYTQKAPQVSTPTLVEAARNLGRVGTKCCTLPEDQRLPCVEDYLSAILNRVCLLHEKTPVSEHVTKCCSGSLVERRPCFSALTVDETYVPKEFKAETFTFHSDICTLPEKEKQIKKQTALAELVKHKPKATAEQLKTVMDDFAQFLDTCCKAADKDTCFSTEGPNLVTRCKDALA
T3 sequence (P02770 25-608 limits assumed): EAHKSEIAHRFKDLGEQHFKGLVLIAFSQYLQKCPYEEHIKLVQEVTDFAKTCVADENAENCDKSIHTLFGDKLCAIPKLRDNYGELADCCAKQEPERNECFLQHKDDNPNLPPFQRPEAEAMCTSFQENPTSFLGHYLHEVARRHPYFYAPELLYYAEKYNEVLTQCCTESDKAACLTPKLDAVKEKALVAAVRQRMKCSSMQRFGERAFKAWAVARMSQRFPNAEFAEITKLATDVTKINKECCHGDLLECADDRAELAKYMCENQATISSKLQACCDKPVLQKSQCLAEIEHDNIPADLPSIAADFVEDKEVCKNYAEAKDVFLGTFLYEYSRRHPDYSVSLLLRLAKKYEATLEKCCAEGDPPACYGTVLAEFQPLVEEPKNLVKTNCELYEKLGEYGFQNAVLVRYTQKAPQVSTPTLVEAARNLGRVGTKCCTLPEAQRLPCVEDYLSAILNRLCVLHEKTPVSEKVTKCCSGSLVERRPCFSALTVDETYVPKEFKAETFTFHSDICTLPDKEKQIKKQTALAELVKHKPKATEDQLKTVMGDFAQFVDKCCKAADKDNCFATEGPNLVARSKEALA

MDELAFYCGIWECLMHQEQK (on phage) [BB]: binds [1].

DLCDVDFCWF (on phage) [BC]: binds [1].

DICLPRWGCLW-NH2 (not fully specified (bridges); cysteine pairing not given here, free peptide) [SA04] gave an IC50 [2] of 40 nM, an IC50 [3] of 8540 nM and an IC50 [4] of 787 nM. The IC50 [5] was 8540 nM.

EVRSFCTDWPAEKSCKPLRG (on phage; also called Library HA) [HA]: binds [6].

In the case of Ac-QGLIGDICLPRWGCLWGDSVK-NH2 (cysteine pairing not given here, free peptide) [SA08], the IC50 [2] is reported as 10 nM, the IC50 [3] is reported as 63 nM and the IC50 [4] is reported as 68 nM. It also gave a Kd [7] of 858 nM, a Kd [8] of 108 nM and a Kd [9] of 158 nM. The IC50 [10] was 12 nM.

GENWCDSTLMAYDLCGQVNM (on phage; also called Library BA) [BA]: binds [1].

Work on Ac-RLIEDICLPRWGCLWEDD-NH2 (cysteine pairing not given here, free peptide) [SA21] yielded a Kd [8] of 320 nM, an IC50 [10] of 7 nM and an IC50 [11] of 270 nM. For the same binder, the IC50 [5] was 270 nM.

KSCSELHWLLVEECLF (not fully specified (bridges); cysteine pairing not given here, on phage) [BD]: binds [1].

RAPESFVCYWETICFERSEQ (on phage; also called Library HB) [HB]: binds [6].

CGCVDVSDWDCWSECLWSHGA (on phage) [RE]: binds [12].

B1: RA (peptide)
peptide: RNEDPCVVLLEMGLECWEGV
modifications: not fully specified (bridges); cysteine pairing not given here; also: phage-displayed
notes: on phage
B1: binds [12].

EMCYFPGICWM (on phage; also called Library HC) [HC]: binds [6]; binds [12].

QRQMVDFCLPQWGCLWGDGF (on phage; also called Library RB) [RB]: binds [6]; binds [1]; binds [12].

B2: SA15 (peptide)
peptide: GEWWEDICLPRWGCLWEEED-NH2
modifications: not fully specified (bridges); printed as GEWWEDICLPRWGCLWEEED-NH2; cysteine pairing not given here
notes: free peptide
In the case of B2, the Kd [7] is reported as 878 nM, the Kd [8] is reported as 65 nM and the Kd [9] is reported as 150 nM. It also gave an IC50 [10] of 5 nM and an IC50 [11] of 13 nM.

DLCLRDWGCLW (on phage; also called Library RC) [RC]: binds [12].

DTCVDLVRLGLECWG (on phage; also called Library RD) [RD]: binds [12].
